Laboratory results reported in patent publication US20200405889A1 (WASHINGTON UNIVERSITY, published 2020).
Where no end group is shown, it is not given here. [ ]: non-standard residue; d: D form.

Target: mouse chemokine (C-C motif) receptor 2 (CCR2) (mouse, UniProt P51683 1-373)
Assay: cell-based or functional assay

Sequence of mouse chemokine (C-C motif) receptor 2 (CCR2) (P51683 whole entry): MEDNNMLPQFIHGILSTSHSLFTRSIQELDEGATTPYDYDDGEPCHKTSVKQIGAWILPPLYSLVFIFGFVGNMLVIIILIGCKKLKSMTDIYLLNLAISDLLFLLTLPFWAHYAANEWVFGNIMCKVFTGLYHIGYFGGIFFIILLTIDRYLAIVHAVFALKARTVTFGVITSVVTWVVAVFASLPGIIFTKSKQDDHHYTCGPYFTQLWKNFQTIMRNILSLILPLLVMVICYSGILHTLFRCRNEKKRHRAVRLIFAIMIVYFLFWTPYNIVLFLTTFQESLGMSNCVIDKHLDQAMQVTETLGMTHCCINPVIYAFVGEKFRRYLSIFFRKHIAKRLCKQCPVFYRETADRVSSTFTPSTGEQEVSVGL

graft/native lung uptake ratio, PET at 4 hours: 7.24 ratio | graft/native lung uptake ratio, PET at 24 hours: 8.44 ratio | graft/native lung uptake ratio, PET, printed 'At 4 hours after transplantation': 6.58 ratio
B1: ^64CuAuNCs-ECL1i (other)
peptide: [dL]G[dT][dF][dL][dK][dC]
modifications: not fully specified (residue 7); also: peptide joined via TA-PEG-Maleimide to a gold nanocluster doped with 64Cu, copy number not given here
